Measurements reported in US7001892B1, “Pharmaceutical materials and methods for their preparation and use” (Purdue Research Foundation, priority 1999, dated 2006).
Read-outs that look alike come from different tables or passages of the source.

Key:
[1] = cited from earlier work
[2] = cited from earlier work; for storage time after reconstitution: reconstituted with 0.9% benzyl alcohol
[3] = Level of inclusion of guest protein/peptide in host crystals (labeled-insulin/lactose crystals dissolved in PBS and analyzed by HPLC); format: physicochemical; settings: rhodamine-labeled glucagon in α-lactose monohydrate crystals
Method: To investigate the potential for incorporation of a biopharmaceutical into crystals of biocompatible excipients, studies were conducted using rhodamine-labeled glandular glucagon and lactose. As in the previous studies, the rhodamine label was used to facilitate the visualization of glucagon in the host crystals. Typical crystal growth conditions involved the addition of 5 volumes of a supersaturated solution of deionized α-lactose monohydrate to 1 volume of an approximately 1.5 mg/mL (approximately 300 to 400 μmole) of rhodamine-labeled glucagon in purified water. The mixed solution was allowed to stand at room temperature in a 24-well plate.

[4] = vs. 2% in placebo; cited from earlier work

Molecule: Actimmune
- activity ([1]; interferon gamma-1b): dimeric form in solution, activity or 30 million units/mg.

Molecule: Leukine
- specific activity ([1]; GM-CSF): Additional Information: Specific activity is 5 × 10^7 colony forming units per mg protein. Sargramostim
- storage time after reconstitution ([2]; refrigerated temperatures): < 20 days
- reconstituted solution stable for ([2]; reconstituted with sterile water, refrigerated temperatures): < 6 h

Molecule: Protropin
- storage time after reconstitution ([2]; refrigerated temperatures): stored at refrigerated temperature, the reconstituted product is good for 14 days at refrigerated

Molecule: rhodamine-labeled glucagon: glandular glucagon carrying a rhodamine label to visualize it in the host crystals
- level of inclusion [3]: approximately 0.1 % (w/w)

Molecule: Activase
- activity ([1]; T-PA glycoprotein): 580,000 IU/mg.
- time diluted solution can be held ([2]; 1 mg/mL solution diluted 1:1 with 0.9% NaCl or D5W, room temperature): 8 h
- effect of preservatives on the product ([2]; preserved water or addition of preservatives): precipitation

B1: Actimmune (protein, UniProt P01579 24-161, looked up)
Interferon gamma: QDPYVKEAENLKKYFNAGHSDVADNGTLFLGILKNWKEESDRKIMQSQIVSFYFKLFKNFKDDQSIQKSVETIKEDMNVKFFNSNKKKRDDFEKLTNYSVTDLNVQRKAIHELIQVMAELSPAAKTGKRKRSQMLFRG
modifications: interferon gamma-1b
- injection site irritation [4]: Additional Information: 14% injection site irritation vs. 2% in placebo. Cost $140 for 50 μg.
